Columns and labels:
[1] = molecular target: A6 (lane under "Human S100 Proteins") (Homo sapiens, UniProt P06703); experiment: Western blot on human S100 proteins
[2] = molecular target: T1, A8 (lane under "Human S100 Proteins"); experiment: Western blot on human S100 proteins
T1 construct: also called human S100A8
T1 chain: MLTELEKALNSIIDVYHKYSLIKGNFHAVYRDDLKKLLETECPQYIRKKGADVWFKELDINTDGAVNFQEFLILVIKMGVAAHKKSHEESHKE

[3] = molecular target: T2, human S100A4 protein (human, UniProt P26447 1-101); experiment: Western blot
T2 construct: also called S100A4 (human)
T2 sequence (P26447 whole entry, one chain of several): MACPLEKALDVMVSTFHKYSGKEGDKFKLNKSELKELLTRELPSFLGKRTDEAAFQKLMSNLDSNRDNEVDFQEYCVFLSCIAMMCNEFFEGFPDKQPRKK

- binding result [1]: no binding
- binding result [2]: no binding
- binding result [3]: binds
B1: VH1_40Phe:VL3_Leu44 (antibody, V domains shown)
VH: QVQLQESGPGLVKPSQTLSLTCTVSGDSFTNDYYWNWIRQFPGKGLEWIGHIGYGGNINYNPSLKNRLSMSRDTSKNQFSLKLSSVTAADTAVYYCTRESFYDGYPFDYWGQGTLVTVSS
VL: DIQMTQSPSSLSASVGDRVTITCRASQDIRNYLNWYQQKPGKALKLLLYYTSRLHSGVPSRFSGSGSGTDYTLTISSLQPEDFATYYCQQGNSLPRTFGGGTKVEIK
notes: also called Phe40/Leu44; VH1_H40Phe VL3_L44Leu

Source: patent publication US20240043521A1 (ARXX THERAPEUTICS, published 2024)
